Assay results published in patent US20090136977.

B1: ATase2 (acetyltransferase 2) with a myc tag at the C-terminus (protein)
chain: MAPCHIRKYQESDRQWVVGLLSRGMAEHAPATFRQLLKLPRTLILLLGGPLALLLVSGSWLLALVFSISLFPALWFLAKKPWTEYVDMTLCTDMSDITKSYLSERGSCFWVAESEEKVVGMVGALPVDDPTLREKRLQLFHLFVDSEHRRQGIAKALVRTVLQFARDQGYSEVILDTGTIQLSAMALYQSMGFKKTGQSFFCVWARLVALHTVHFIYHLPSSKVGSL
B2: ATase1 (acetyltransferase 1) with a myc tag at the C-terminus (protein)
chain: MAPYHIRKYQESDRKSVVGLLSRGMAEHAPATFRRLLKLPRTLILLLGGALALLLVSGSWILALVFSLSLLPALWFLAKKPWTRYVDIALRTDMSDITKSYLSECGSCFWVGESEEKVVGTVGALPVDDPTLREKRLQLFHLSVDNEHRGQGIAKALVRTVLQFARDQGYSEVVLDTSNIQLSAMGLYQSLGFKKTGQSFFHVWARLVDLHTVHFIYHLPSAQAGRL

Assays:
[1] = biological target: affinity purified BACE1 (BACE1-myc, wild type), P56817
Sequence of affinity purified BACE1 (BACE1-myc, wild type), P56817 (P56817 22-501): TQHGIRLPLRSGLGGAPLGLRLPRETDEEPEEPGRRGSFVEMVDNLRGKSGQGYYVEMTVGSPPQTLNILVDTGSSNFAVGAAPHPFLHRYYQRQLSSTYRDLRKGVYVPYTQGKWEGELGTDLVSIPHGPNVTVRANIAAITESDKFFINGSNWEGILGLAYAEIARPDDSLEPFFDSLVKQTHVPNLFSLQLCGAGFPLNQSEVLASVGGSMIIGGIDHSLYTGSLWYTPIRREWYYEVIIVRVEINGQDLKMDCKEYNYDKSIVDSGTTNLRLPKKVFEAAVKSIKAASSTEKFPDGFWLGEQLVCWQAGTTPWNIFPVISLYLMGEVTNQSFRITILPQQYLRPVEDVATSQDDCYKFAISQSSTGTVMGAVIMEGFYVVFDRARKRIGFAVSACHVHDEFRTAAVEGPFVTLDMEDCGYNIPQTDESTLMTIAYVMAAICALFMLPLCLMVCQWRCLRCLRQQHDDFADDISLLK

[2] = biological target: BACE1Arg (Lys-to-Arg mutant form of BACE1), P56817
Sequence of BACE1Arg (Lys-to-Arg mutant form of BACE1), P56817 (P56817 other isoform, or with tags, fused parts or gaps mutant): as the sequence (P56817 22-501) above, with K105R, K254R, K258R, K264R, K278R, K279R, K286R counted along it

Protein | acetylation of BACE1 with non-radiolabeled acetylCoA, Western blot with anti-acetylated lysine [1] | in vitro acetylation of BACE1 with [3H]acetylCoA, scintillation counting [2] | acetyltransferase activity of ERGIC fractions (acceptor: affinity purified BACE1) [1] | average cpm/assay ([3H]acetyl incorporated into BACE1) [1] | in vitro acetylation of BACE1 with [3H]acetylCoA, scintillation counting [1]
B1 | there was a marked increase in the acetylation of both the immature and partially-mature forms of BACE1 | – | – | – | –
B2 | clearly indicate that ATase1 can acetylate BACE1 | purified ATase1 was able to acetylate BACE1WT but not BACE1Arg | ERGIC fractions from ATase1-expressing cells displayed increased (~2-fold) acetyltransferase activity | The average cpm/assay for ATase1 was 1737±486 | purified ATase1 was able to acetylate BACE1WT but not BACE1Arg
